The values below come from a protein production outcome set (Wang et al. 2014).

The series in a line: label from the status in PepcDB records.
For “MKQKLLYLCLFVTLAVVGHSYIIYRFIHDGVLFTGPNDGMEQMVPIQMYLFDNWHHGNFFYASDFGLGGDFFSDLSYYFSTNIIFIINVIVIVLLKTFITLDTTHIMFWMTNALIVSIFKSAIAMLATYLYVRYIALNKKIAVLAAFIFVISPIYFRFTVYWPFFSDVFIWLPLLLWSIERFLKSGKIGFFIIIVAITLINNFYFAYYQLLTGLIYLTIRLVFRHQADIIPRFKSFMSLFIASVIGLGCSLPFFFPAIQSFFNNRRTPFDGNVDLFEPFNQNTNVFYDNYLIVILFITGQALLSFKLYKHYYFKLFAISTLILICASFVPFIDQIFNGFSAPQKRWHYLIAFNSAVLIGLYVKYFRTISIPNYIFSSVISLSIIGLSAWYYDDVVAWVWFAPIVSLIGFLILLINESHIKLKLTHLFVLSIMILTVLVSTVFIRNQIYFEDHVKRANAYFVNASLFNTPLQQQLVKDMNTHKLEDERIDWRVNEQDNTPMYQQFKGLSIYSSIFDHHILDFYYDELKINMQEESVSRYQSTNGRQNMSSLFSIKYLMVKRYQHNIPAYFKKIKNDGQYEIYENTLNLPSVRVSNKKYNSNDLHNPIDKEHAMMDGVILNNKGASYTAKAPNLLNQTRITYKDIDNKRNHQIHASKNDSHVQIHIPKHLRQRYHDFYLTIKVKRGLPDSNFSVQINNYTNNRLYNNSTYRTGVDTQLYRTQPDKNGNINVGLSPTGNYYLDIQSLHGENYNHLKSAYAKQNNDGHYTDIKNGVKVKLGPHEKGIATINIPYREGMTAYVDNKKIKPLNVNYMMTGVPVSKDSKEIIIKYRPKYWYTVTAISIIFIIGSLSWFMRKRYKNK”, the protein production result is listed as “failed”.
The entry for “IPLGIYEKALPAGECWLERLKLAKALGFDFVEMSLDETDARLARLDWSPEQRLALVKAVAETGVRVPSMCLSAHRRFPLGSEDDAVRHQGLEIMRKAIQLAQDVGIRVIQLAGYDVYYQQANDETRRRFRDGLKQSVEMASRAQVTLAMEIMDYPLMNSISKALGYAHYLNNPWFQLYPDIGNLSAWDNDVQMELKAGSGHIVAVHVKDTKPGVFKNVPFGEGVVDFERCFETLKQTGYCGPYLIEMWSETSADPLAEVAKARDWVKARMARAGLM” is “not failed”.
Then “MTYKSLPVAEKIQSYWNRRARLVIVTSFTILCAAATIYFHMILGVEIVFTHLFYIPMVFAAVWFGRRSFIVTAFLGTVLLVTHALASLGGFQDDVMRLSVMFFVNAITVILSESIGESEEALAESEEKYRTIVESARDAIITVDGNGSIVSWNSAAEKIFGYRAAEMMGRHIDTIITEENLEKHDFNRIIDREISIMVTDVEGVRKDGTRVPLEISVFSWNYMDEKFITAVIRDVTERKMAENALIESERKFRAVFDGVEDIITIVEIRENGLPGKYIEVNRAAVEKLGYSRDELLRMTPADMGVSREQSYDIIKNLLRSGKVTFNRTYISRDGRRIPVEVNSRLLELGEMKVAVSVARDITQRLENERRLRESEEKYRSLFDLSPEYILLLDPEDGRILDVNSTLAGTLGIPSEELRGRSIYELEFLSDDVKTEFRSKIEVIERDGTLEPYEMVLTDPYGREYTVRIYNKLIHAEGRECLLIVLNDISDLKRTQSMLEKSLAEKELLLKEIHHRVKNNLMIISSLLSLQSRQAKDRETMDLFRESENRTRSMVLIHERLYRSEDLKNIDLAEYLGRLASEIFRSYSADSRIRLKLEIDELKVDVETAVPLGLIVNELLTNAVKHAFPDGEGTVTVSLRKRNGTVTLEVSDDGAGFPEDIDWESSPSLGLQLVRKPH”, with “failed”; and “MNKLSEKNTTRLASLDILRGFDLFLLVFFQPVFAALVRQLNLPFLNDILYQFDHEVWEGFRFWDLVMPLFLFMTGASMPFSLSKYVGMSGSYWLVYRRILRRVFLLFIFGMIVQGNLLGLDSSHIYLYSNTLQSIAVGYLIAAVIQLHFSFRWQIGITLLLLFIYWIPMTFLGDFTPAGNFAEQVDRCVLGRFRDGVFWNEDGTWSFSPYYNYTWIWSSLTFGVTVMLGAFAGKIMKEGKANRKKVVQTLSVIGVLLVGLAMLWSLQMPIIKRLWTGSMTLLSGGYCFLLMALFYYWIDYKGHSRGLNWLKVYGMNSITAYLLGEVVNFRCIADSVSYGLKQYIGDYYPVWLTFANYLILFFLLRMMYKRGLFLKV”, with “failed”.
Then “MNSEIFRIFRKKYSEEIRNPPMNATTLPEALKLMQYIGDAIGTIRDPQELFRTVTDKLRLLFAFDSAVIITIDRERREASVFFEMLRFELPEQLRHQTRSIAGTWLEGHLDDRTVTVASIARDIPSFGADGAPLLWTLHELGMRQIVLSPLRSGGRVIGFLSFVSAEEKLWSDGDKSLLSGVSSSIAIAVSNALAYEELRQRE”, with “failed”; and “MGHHHHHHSHRNLDSRTFITIGDRNFEVEADDLVTISELGRGAYGVVEKVRHAQSGTIMAVKRIRATVNSQEQKRLLMDLDINMRTVDCFYTVTFYGALFREGDVWICMELMDTSLDKFYRKVLDKNMTIPEDILGEIAVSIVRALEHLHSKLSVIHRDVKPSNVLINKEGHVKMCDFGISGYLVDSVAKTMDAGCKPYMAPERINPELNQKGYNVKSDVWSLGITMIEMAILRFPYESWGTPFQQLKQVVEEPSPQLPADRFSPEFVDFTAQCLRKNPAERMSYLELMEHPFFTLHKTKKTDIAAFVKEILGEDS”, with “failed”.
For “MLPVLETTAHSPLTIVWFVLITVLWVGFFFLEGFDFGVAMLLPFLGRDDKDRRLMVNTIGPTWDGNEVWLLTAGGATFAAFPGWYATMFSGLYLPLLLVLLGLIVRGVAFEYRSKNPSSSWRNAFDWMATIGSFLPTLVLGVGFANFVRGLAVGPHSTPDGGTAPLVTTSFWGLFTPFALIGGILFVVLFCAHGANFVALKTMGDMHDRARKTSAKLGWIATVVALVWALMFNIMYVTRDGRQVLTWIICLLVVVLLAAGSAVVAKGREGLAFLCTALGIALMIVACMFAMYGNLGYRPSGIAFDMWIASATGRTLKIMTISACVFVPIVLAYQVWSYWVFRKRLTREAIPDTAVAA”, the protein production result is on record as “failed”.
For the sequence “AIARTDSSKMTDVESGVANFASSARAGRRNALPDIQSSAATDGTSDLPLKLEALSVKEDAKEKDEKTTQDQLEKPQNEEK”, the protein production result was “failed”.
Then “MHTLVFLSTRQVLQCQPAACQALPLLPRELFPLLFKVAFMDKKTVVLRELVHTWPFPLLSFQQLLQECAHCSRALLQERPSTESMQAVILGLTARLHTSEPGASTQPLCRKHALRVLDMTGLLDDGVEQDPGTMSMWDCTAAVARTCIAQQQGGAAEPGPAPIPVEVRVDLRVNRASYAFLREALRSSVGSPLRLCCRDLRAEDLPMRNTVALLQLLDAGCLRRVDLRFNNLGLRGLSVIIPHVARFQHLASLRLHYVHGDSRQPSVDGEDNFRYFLAQMGRFTCLRELSMGSSLLSGRLDQLLSTLQSPLESLELAFCALLPEDLRFLARSPHAAHLKKLDLSGNDLSGSQLAPFQGLLQASAATLLHLELTECQLADTQLLATLPILTQCASLRYLGLYGNPLSMAGLKELLRDSVAQAELRTVVHPFPVDCYEGLPWPPPASVLLEASINEEKFARVEAELHQLLLASGRAHVLWTTDIYGRLAADYFSL”, with “failed”.
Then “MTKKIVLAGGTGFIGQYLQQRFEENGDEVVIISRRAPHVSWDDSEAVREALEGADMLVNLAGKSVNCRYNEQNKKAILQSRIDTTNILGEAVLACERPPKLWLNSSTATIYRHAEDRAMTEANGELGSGFSENVAKAWEEEFFSFQLPNTRQAALRISIVLGGDGGALTPYRYLTKFGLGGKQGSGKQMVSWIHVEDVFRVIRFIEEQEALEGVINCTSPQPVSNKVLTTAIRRAMNVKVGLPATAWMLEIGTFLLRTESELILKSRWVLPERLLQAGFTFQYETIDDALSEILVQSKSASHLLEHHHHHH”, with “failed”.
Then “MDGEILRDPTRRFVLQSGAAVGGGLLLSFTMSSEGQAAGDTKVNAYVRIASDGKVTIASKVPEVGQGIKTALPMLIAEELDVDWSAVTVEQAIADTKIYGRQVAGGSMATTLEYDGLRRVGATVRALLIAAAAARWNVPADSLKTEPGFVVDAAGKRRASYGELAQAAAALTPPDPKSLTLKDPKAFRIIGKSHKSQNLDAIVTGQPTYGIDVRLPGMLFAAFAKAPVYGAKVASVDLALAKAVKGVRDAFIIEGGTNLQGLLPGVAVVADSWWAARKGREALQIQWAEHPTASQSTVGFAAKAAELAAAPPHRNLHNDGDVEAALKGAAKTVSAAYSYPFIAHAALEPQNCTAHVKDGKVEIWAPTQNPESGRALVARALNVDPSAITIHLIRGGGGFGRRLMNDYMVEAAAIAAKVNAPVQLIWTREDDMQHDFYRPGGWHNLTAGLDAKGGLTAWKNHFITFGEGETFNTAAAMNATQFPCRAVANYRHDVSVMPLGFPTGFLRAPGNNAFGFVIQSFTDELALAAGKDPVAFRRELLGEPRLLGEPGKGDSFHTGRMRGVLDLVAEMSGWGRKVPKGTGLGVACHYSHLGYVAVVMQVTVKDGAVKVDKVWAAADVGRQIVNPSGADQQMQGSILDAIGSTLYQSITFENGAATNSNFGDFPLLRMADAPPVEVRYKLSDNNPTGLGEPAYPPAPAALCNAIFAATGKRIRSLPIGDQLA”, with “failed”; and “TNNGKQFIHNDTMEGGKLVCREIYAMNDAASGILNPVKMYKYSYDTDQQKTVKSTYAWNIFKNTWETESRTVISRYETETSVEYSVWNKEKGSFDLSKKYIYITDNNNQLIAQYAYKMNSRTNQWILEKDALTPIYENIYATTR”, with “not failed”; and “MNDDVEFRYADFLFKNNNYAEAIEVFNKLEAKKYNSPYIYNRRAVCYYELAKYDLAQKDIETYFSKVNATKAKSADFEYYGKILMKKGQDSLAIQQYQAAVDRDTTRLDMYGQIGSYFYNKGNFPLAIQYMSKQIRPTTTDPKVFYELGQAYYYNKEYVKADSSFVKVLELKPNIYIGYLWRARANAAQDPDTKQGLAKPYYEKLIEVCAPGGAKYKDELIEANEYIAYYYTINRDKVKADAAWKNILALDPTNKKAIDGLKMKLEHHHHHH”, with “not failed”.
On to “MIRNASIINVFRVSLALIVIVASASSLSAFWLLEKSEQDAELINVAGSHRMKAYKFALQLSSGKKVQASETAQEIDTLWEQPLLHRHFVKAGGSIQQLAKDARTEWQRVHSEIAEQDFARFSQQQSNAIDNYVNQLDTLVGQLQEHSERRMETVRSSLALASFFIVAIFFFLLTVLKRKINQPLRHLLAVSKRLGQGDFTAKSKIDNEDEIGQLSRTMNKMSETVSYFYGGLERRVEQQTQELSRKNKVLSFLYDTARSIIVHSYDYNNYQQVIEKLYEIGEVNDIELCLLTEEGNRPFLQLQPRPSSHEPCEAGDCATCLKAGPGASVIEDKLVYRFVLKREDQNYGVLIVRCEQGQPLATWQQQLMSSTADQLALSQSLKSEEEQVRRLALMHERTVIARELHDSLAQALSYLKIQVTRLHKGIEKNDRATIDDVSNELREGLNSAYRQLRELLTTFRLKVDGSGLYSALQTTVKQLTEQSNMVVHLDYRLNNIPLVPHEEIHLLQIIREASQNAVNHSQGSEVHISLSQPSGQDVELKITDDGIGLPENAEKVNHYGLAIMQERSRNLGGEIKISRLESGGTEVCFTFTPDYLLQ”, for which the protein production entry is given as “failed”.
The entry for “MGQKKYVELSKDIFIFSYLCGGINFTDIANLTQENIVNGRLHYIRQKTGKLIKIGIPQEAMQIIKKYTDESNGYLFPILNVKVHKTALQKQNRIHKIRGKVNDILKTLGKRLGIEANITTYVARHSFASVLKKSGVNIALISEALGHSDLATTQIYLDSFDNEQVDEAMKNLLEHHHHHH” is “not failed”; for “MKEKLWTTTFVVNMLLNFIFYLVFYLPTVVIGTMAMERYHASASIAGILSGIFIVGGFIARLWAGNNMKRLGAKKLLYIGTLIYFLLTFAYFFVHSVVLLLILRLVHGLGFGIAATASGTLAGAIVPSSRRGEGIGYYALSVTLSSAVGPFLSMFLYRTSGFYSLIWLSALLLFIALVGIFFIHVEKTTDSSNSVDNKVHKKFAWSNYFEKEALPISLIAFLIGISYSSILSFMDAYARNIHLSEAASFFFLVYAITVLLSRPITGRVFDGFGDNFVMYPTYLFFALGLLLIGFAHSGWMLLLAAIFIGLGYGSFSPFGQAIAIRNSEAHRLGITTSTFFGFMDMGVGFGPFILGMFMPLLGYRNLYFASAILALLIAVIYHFVHGRHAKREN” it is “failed”.
